Measured values from paper PMC9352680, “A comprehensive thermodynamic model for RNA binding by the Saccharomyces cerevisiae Pumilio protein PUF4”.
Where a chain is given by its changes, count along the chain named. Numbers in names are those of the source.

B1: Id_ii_S2_P4E.4_K4.3_C4.2_[T-1G]_H4.3_A4.1_F4.1_T4.2_[G10T]_[T11C] (ssRNA)
RNA: UUUGAUUAAUAUGAUAUCGUUCUUUCUCGACACUAUUAUCUUCUUUCUCGAUAUCAUAUUAAUCUUU
B2: Id_ii_S2_P4E.4_K4.3_C4.2_[T-1C]_H4.3_A4.1_F4.1_T4.2 (ssRNA)
RNA: B1 RNA with G29C, U39G, C40U
B3: Id_ii_S2_P4E.4_K4.3_C4.2_[T-1A]_H4.3_A4.1_F4.1_T4.2_[G10A]_[T11C] (ssRNA)
RNA: B1 RNA with G29A, U39A
B4: Id_ii_S2_P4E.4_K4.3_C4.2_[T-1C]_H4.3_A4.1_F4.1_T4.2_[G10A]_[T11A] (ssRNA)
RNA: B1 RNA with G29C, U39A, C40A
B5: Id_ii_S2_P4E.4_K4.3_C4.2_H4.3_A4.1_F4.1_T4.2_[G10C]_[T11C] (ssRNA)
RNA: B1 RNA with G29U, U39C
B6: Id_ii_S2_P4E.4_K4.3_C4.2_[T-1C]_H4.3_A4.1_F4.1_T4.2_[G10A] (ssRNA)
RNA: B1 RNA with G29C, U39A, C40U
B7: Id_ii_S2_P4E.4_K4.3_C4.2_[T-1A]_H4.3_A4.1_F4.1_T4.2_[G10C] (ssRNA)
RNA: B1 RNA with G29A, U39C, C40U
B8: Id_ii_S2_P4E.4_K4.3_C4.2_[T-1G]_H4.3_A4.1_F4.1_T4.2_[G10A]_[T11A] (ssRNA)
RNA: B1 RNA with U39A, C40A
B9: Id_ii_S2_P4E.4_K4.3_C4.2_[T-1G]_H4.3_A4.1_F4.1_T4.2_[G10A]_[T11C] (ssRNA)
RNA: B1 RNA with U39A
B10: Id_ii_S2_P4E.4_K4.3_C4.2_[T-1C]_H4.3_A4.1_F4.1_T4.2_[G10T] (ssRNA)
RNA: B1 RNA with G29C, C40U
B11: Id_ii_S2_P4E.4_K4.3_C4.2_[T-1A]_H4.3_A4.1_F4.1_T4.2_[G10C]_[T11A] (ssRNA)
RNA: B1 RNA with G29A, U39C, C40A
B12: Id_ii_S2_P4E.4_K4.3_C4.2_H4.3_A4.1_F4.1_T4.2_[G10T]_[T11A] (ssRNA)
RNA: B1 RNA with G29U, C40A
B13: Id_ii_S2_P4E.4_K4.3_C4.2_[T-1A]_H4.3_A4.1_F4.1_T4.2 (ssRNA)
RNA: B1 RNA with G29A, U39G, C40U
B14: Id_ii_S2_P4E.4_K4.3_C4.2_[T-1G]_H4.3_A4.1_F4.1_T4.2_[G10T] (ssRNA)
RNA: B1 RNA with C40U
B15: Id_ii_S2_P4E.4_K4.3_C4.2_[T-1G]_H4.3_A4.1_F4.1_T4.2_[G10A] (ssRNA)
RNA: B1 RNA with U39A, C40U
B16: Id_ii_S2_P4E.4_K4.3_C4.2_[T-1A]_H4.3_A4.1_F4.1_T4.2_[G10C]_[T11C] (ssRNA)
RNA: B1 RNA with G29A, U39C
B17: Id_ii_S2_P4E.4_K4.3_C4.2_H4.3_A4.1_F4.1_T4.2_[G10C]_[T11G] (ssRNA)
RNA: B1 RNA with G29U, U39C, C40G
B18: Id_ii_S2_P4E.4_K4.3_C4.2_[T-1C]_H4.3_A4.1_F4.1_T4.2_[G10C]_[T11C] (ssRNA)
RNA: B1 RNA with G29C, U39C
B19: Id_ii_S2_P4E.4_K4.3_C4.2_[T-1A]_H4.3_A4.1_F4.1_T4.2_[T11C] (ssRNA)
RNA: B1 RNA with G29A, U39G
B20: Id_ii_S2_P4E.4_K4.3_C4.2_[T-1A]_H4.3_A4.1_F4.1_T4.2_[G10A] (ssRNA)
RNA: B1 RNA with G29A, U39A, C40U
B21: Id_ii_S2_P4E.4_K4.3_C4.2_H4.3_A4.1_F4.1_T4.2_[G10C]_[T11A] (ssRNA)
RNA: B1 RNA with G29U, U39C, C40A
B22: Id_ii_S2_P4E.4_K4.3_C4.2_[T-1A]_H4.3_A4.1_F4.1_T4.2_[G10T]_[T11A] (ssRNA)
RNA: B1 RNA with G29A, C40A
B23: Id_ii_S2_P4E.4_K4.3_C4.2_[T-1C]_H4.3_A4.1_F4.1_T4.2_[G10T]_[T11A] (ssRNA)
RNA: B1 RNA with G29C, C40A

Target: T1, PUF4 RNA-binding domain (Saccharomyces cerevisiae, UniProt P25339 537-888)
T1 sequence: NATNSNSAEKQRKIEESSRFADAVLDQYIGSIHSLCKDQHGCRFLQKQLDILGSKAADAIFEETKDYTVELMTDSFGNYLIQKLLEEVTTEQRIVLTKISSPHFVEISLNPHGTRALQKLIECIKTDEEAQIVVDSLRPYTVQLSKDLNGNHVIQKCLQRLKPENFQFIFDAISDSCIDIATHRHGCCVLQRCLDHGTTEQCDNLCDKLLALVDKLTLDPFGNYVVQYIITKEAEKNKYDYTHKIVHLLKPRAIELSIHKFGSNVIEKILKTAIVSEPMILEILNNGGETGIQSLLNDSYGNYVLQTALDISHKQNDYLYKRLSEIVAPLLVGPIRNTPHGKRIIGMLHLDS
Test: Mg; RNA-MaP; 20 mM Na-HEPES pH 7.4, 30 mM KOAc, 0.75 mM MgCl2, 0.1% Tween-20, 5% glycerol, 0.1 mg/mL BSA, 2 mM DTT; 25 C; 0.0125-409.6 nM protein
Details: tags: N-His6-TEV cleaved; C-SNAP kept, Cy3B-labelled; label: tethered on chip by stalled RNA polymerase

Binder	Kd [µM]
B1	> 2.3
B2	> 2.3
B3	2.24
B4	> 2.3
B5	0.563
B6	> 2.3
B7	> 2.3
B8	> 2.3
B9	> 2.3
B10	2.05
B11	> 2.3
B12	0.459
B13	> 2.3
B14	> 2.3
B15	> 2.3
B16	> 2.3
B17	> 2.3
B18	> 2.3
B19	> 2.3
B20	> 2.3
B21	0.471
B22	0.748
B23	0.594
UCUCUUUGUAAUACUAUCUCUU (ssRNA) [Ib_S1_P5E.1_K5.1_C5.1_H5.1_A5.1_[T5A]_F5.1_[T8C]_T5.1]	0.0103
UCUCUUUGUACUAAUAUCUCUU (ssRNA) [Ic_S1_P5E.1_K5.1_C5.1_H5.1_A5.1_[T5C]_F5.1_[T8A]_T5.1]	0.0125
